Test results from patent US20260232831A1 (FRONTAIM BIOMEDICINES, published 2026).
Where a chain is given by its changes, count along the chain named.

Experiments:
[1] = target: T1, human Trop2 on the cell surface (A-431, ME-180, MDA-MB-468 cells) (human, UniProt P09758 27-323); test: flow cytometry on ME-180 cells, AF488 goat anti-human IgG Fc detection
T1 construct: whole, on cells; Endogenous Trop2 on Trop2-positive tumour cell lines used in flow cytometry and cytotoxicity assays; also called TACSTD2; tumor-associated calcium signal transducer 2
T1 sequence (looked up): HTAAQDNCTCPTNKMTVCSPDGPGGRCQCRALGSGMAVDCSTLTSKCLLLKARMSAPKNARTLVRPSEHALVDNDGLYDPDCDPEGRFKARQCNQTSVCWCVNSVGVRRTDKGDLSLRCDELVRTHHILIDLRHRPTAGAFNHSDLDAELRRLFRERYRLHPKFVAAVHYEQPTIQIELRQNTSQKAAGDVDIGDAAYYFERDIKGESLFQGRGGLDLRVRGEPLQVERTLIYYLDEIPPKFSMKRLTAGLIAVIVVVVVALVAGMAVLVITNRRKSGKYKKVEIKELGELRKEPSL
Experimental: For CD3 binding, Jurkat cells were dispensed into a 96-well plate at 2×10⁵/well, and incubated with indicated agents at 4° C. for 45 min. After wash with PBS, cells were incubated with AF488 labeled goat anti-human IgG Fe. For Trop2 binding, ME-180 cells were dissociated from culture, dispensed into a 96-well plate at 2×10⁵/well, and incubated with indicated agents at 4° C. for 45 min. After wash with PBS, cells were incubated with AF488 labeled goat anti-human IgG Fc. Binding was analyzed by low cytometry using Attune N×T Flow Cytometer.
After wash with PBS, cells were incubated with a AF488 labeled goat anti-human IgG Fc secondary antibody at 4° C. for another 45 min. After two wash steps, binding was analyzed by flow cytometry using Attune N×T Flow Cytometer.

[2] = target: T1, human Trop2 on the cell surface (A-431, …); test: flow cytometry on A-431 cells, AF488 goat anti-human IgG Fc detection
Experimental: All incubations were 45 min at 4° C. plus washes with 1% BSA in PBS between incubations. Binding signal was measured by Attune™ N×T Acoustic Focusing Cytometer (ThermoFisher Scientific).

[3] = target: T2, human CD3 on Jurkat cell surface (human, UniProt P07766 23-207); test: flow cytometry on Jurkat cells, AF488 goat anti-human IgG Fc detection
T2 construct: whole, on cells; also called cell surface CD3 of Jurkat
T2 sequence (P07766 23-207): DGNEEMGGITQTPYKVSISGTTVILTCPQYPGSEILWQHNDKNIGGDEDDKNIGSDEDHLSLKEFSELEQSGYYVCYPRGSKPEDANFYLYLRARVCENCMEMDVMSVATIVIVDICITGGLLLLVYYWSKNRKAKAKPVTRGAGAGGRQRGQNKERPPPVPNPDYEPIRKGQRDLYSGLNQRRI
Experimental: For CD3 binding, Jurkat cells were dispensed into a 96-well plate at 2×10⁵/well, and incubated with indicated agents at 4° C. for 45 min. After wash with PBS, cells were incubated with AF488 labeled goat anti-human IgG Fc. […] After wash with PBS, cells were incubated with AF488 labeled goat anti-human IgG Fe.
After wash with PBS, cells were incubated with a AF488 labeled goat anti-human IgG Fc secondary antibody at 4° C. for another 45 min.

[4] = target: T1, human Trop2 on the cell surface (A-431, …); test: cell-based or functional assay

B1: humanized anti-Trop2 antibody hL0125 (antibody, V domains shown)
VL: DIQLTQSPAIMSASPGERVTMTCRASSSVSSSYLHWYQQRSGQSPKLLIYSTSNLASGVPARFSGSGSGTDYSLTISSLEAEDAATYYCQQYSGSPLTFGSGTKLEIKR
VH: QVQLQESGGGLVKPGGSLKLSCAASGFTFSSYAMSWVRQTPDKRLEWVAEISSDGFYTYYPDTVTGRFTISRDNAKNTLYLQMSSLRSEDTAMYYCARDGNYVDYAMDYWGQGTSVTVSS
notes: Variable regions were cloned into human IgG expression vectors to give a full-size humanized IgG; also called modular antibody hL0125
For B1, the “EC50 (read off the curve)” value [1] was roughly 6 nM, the “EC50 (read off the curve)” value [2] was roughly 10 nM and the binding result [3] was “no binding (tested: 20.0 nM)”.

B2: chimeric anti-Trop2 antibody cL0125 (antibody, V domains shown)
VH: VKLQESGGGLVKPGGSLKLSCAASGFTFSSYAMSWVRQSPEKRLEWVAEISSDGFYTYYPDTVTGRFTISRDNAKNTLYLEMSSLRSEDTAMYYCARDGNYVDYAMDYWGQGTSVTVSS
VL: B1 VL with R18K, Q43A, L48W, D71S, L79V
notes: Chimeric antibody made from the murine L0125 VL and VH
B2 was tested, and the “EC50 (read off the curve)” value [2] was roughly 10 nM.

B3: bispecific antibody 3scFv×hL0125C (bispecific antibody)
heavy: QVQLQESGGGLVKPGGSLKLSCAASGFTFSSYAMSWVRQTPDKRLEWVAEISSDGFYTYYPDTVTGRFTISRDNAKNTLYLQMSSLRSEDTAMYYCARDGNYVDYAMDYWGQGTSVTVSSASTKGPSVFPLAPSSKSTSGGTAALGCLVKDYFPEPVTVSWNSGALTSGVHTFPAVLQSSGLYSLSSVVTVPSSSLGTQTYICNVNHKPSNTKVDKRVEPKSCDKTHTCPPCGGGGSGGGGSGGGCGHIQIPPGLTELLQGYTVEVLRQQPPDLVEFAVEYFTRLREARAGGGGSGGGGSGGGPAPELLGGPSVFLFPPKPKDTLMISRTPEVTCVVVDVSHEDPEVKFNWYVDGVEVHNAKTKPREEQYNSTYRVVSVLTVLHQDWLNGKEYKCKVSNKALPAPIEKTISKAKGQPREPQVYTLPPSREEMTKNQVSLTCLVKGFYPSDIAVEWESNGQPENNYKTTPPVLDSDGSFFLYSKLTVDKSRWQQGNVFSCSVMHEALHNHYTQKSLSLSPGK
light: DIQLTQSPAIMSASPGERVTMTCRASSSVSSSYLHWYQQRSGQSPKLLIYSTSNLASGVPARFSGSGSGTDYSLTISSLEAEDAATYYCQQYSGSPLTFGSGTKLEIKRTVAAPSVFIFPPSDEQLKSGTASVVCLLNNFYPREAKVQWKVDNALQSGNSQESVTEQDSKDSTYSLSSTLTLSKADYEKHKVYACEVTHQGLSSPVTKSFNRGEC
scFv: not shown
modifications: The AD2 of the scFv is docked on the DDD2 dimer and locked by disulfide bonds; the complex holds 2 heavy chains, 2 light chains and 1 scFv.
notes: hL0125 IgG with DDD2 inserted in the hinge of each heavy chain; The DDD2 dimer docks the AD2 of one anti-CD3 scFv (3scFv), giving a 2+1 format assembled intracellularly; also called Construct C; Format C
In the case of B3, the “EC50 (read off the curve)” value [1] is reported as roughly 10 nM, the “IC50, 60-hour MTS viability assay, BT-474 cells with human PBMCs (10:1)” value [4] is reported as roughly 0.02 nM and the “IC50, 60-hour MTS viability assay, HCT116 cells with human PBMCs (10:1)” value [4] is reported as roughly 0.018 nM. The “IC50, 60-hour MTS viability assay, MDA-MB-231 cells with human PBMCs (10:1)” value [4] was roughly 0.013 nM and the “IC50, 60-hour MTS viability assay, MDA-MB-468 cells with human PBMCs (10:1)” value [4] was roughly 0.006 nM.
